# Columns and labels:
# [1] = molecular target: T1, huFLT3-T227-His (human, UniProt P36888 27-543); assay: BLI
# T1 construct: extracellular domain; also called FLT3 WT
# Description: (§1) Discovered scFvs were analyzed for binding to huCD33-R69-His or huCD33-G69-Fc recombinant proteins (for anti-CD33 scFvs; for CLL-1 scFvs, huCLL1-K244-Avi-Tev-His or huCLL1-Q244-Avi-Tev-His were used; for FLT3, huFLT3-T227-His or huFLT3-M227-Fc were used) using BLI on a ForteBio Octet HTX instrument. Streptavidin-coated biosensors were loaded with biotinylated anti-V5 tag monoclonal antibody for 5 min and were then quenched and blocked with 20 μM amine-PEG2-Biotin for 5 min. scFvs were captured on biosensors from scFv clone periplasmic extracts. huCD33 (or huCLL-1, or huFLT3) proteins were then associated with the captured scFvs for 2 minutes, followed by dissociation with buffer (1×HBST [10 mM HEPES pH 7.4, 150 mM NaCl, 0.05% Tween-20], 1 g/L BSA) for 5 minutes. […] Data was fitted with 1:1 Langmuir equation and off-rate values were reported.
# [2] = molecular target: T2, huFLT3-M227-Fc (human, UniProt P36888 27-543); assay: BLI
# T2 construct: extracellular domain; also called FLT3 Mutant
# Description: as §1
# [3] = molecular target: T3, huCD33-R69 stably expressed on Jurkat cells (human, UniProt P20138 18-364); assay: FACS on cells;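 further: fixed Jurkat cells bearing either CD33 variant, barcoded by dye, exposed to myc-tagged scFv periplasmic extracts, detected with anti-myc PE antibody and read by flow cytometry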
# T3 construct: whole, on cells; >200,000 receptors per cell; also called CD33 WT; CD33^ARG69
# Description: (§2) Jurkat cells were engineered to stably express either the huCD33-R69 or huCD33-G69 variant at >200,000 receptors per cell. Parental, huCD33-R69, and huCD33-G69 Jurkat cell lines were stained with differing levels of CellTrace Violet Cell Proliferation Kit (ThermoFisher, cat. #C34557) to barcode each cell line. Barcoded Jurkat cell lines were fixed with paraformaldehyde and incubated with myc-labeled scFv periplasmic extracts and a secondary anti-myc PE-conjugated monoclonal antibody. Appropriate positive and negative controls were used. Stained cells were analyzed by flow cytometry (CytoFLEX, Beckman Coulter, Inc.) and binding was assessed by change in PE mean fluorescence intensity (MFI) of the barcoded cell populations.
# [4] = molecular target: T4, huCD33-G69 stably expressed on Jurkat cells (human, UniProt P20138 18-364); assay: FACS on cells;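 further: fixed Jurkat cells bearing either CD33 variant, barcoded by dye, exposed to myc-tagged scFv periplasmic extracts, detected with anti-myc PE antibody and read by flow cytometry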
# T4 construct: whole, on cells; >200,000 receptors per cell; also called CD33 Mutant; CD33 R69G
# Description: as §2
# [5] = molecular target: T5, huCD33-R69-His recombinant protein (human, UniProt P20138 18-259); assay: BLI
# T5 construct: extracellular domain
# Description: as §1
# [6] = molecular target: T6, huCD33-G69-Fc recombinant protein (human, UniProt P20138 18-259); assay: BLI
# T6 construct: extracellular domain; also called CD33 R69G
# T6 sequence (P20138 18-259 R69G): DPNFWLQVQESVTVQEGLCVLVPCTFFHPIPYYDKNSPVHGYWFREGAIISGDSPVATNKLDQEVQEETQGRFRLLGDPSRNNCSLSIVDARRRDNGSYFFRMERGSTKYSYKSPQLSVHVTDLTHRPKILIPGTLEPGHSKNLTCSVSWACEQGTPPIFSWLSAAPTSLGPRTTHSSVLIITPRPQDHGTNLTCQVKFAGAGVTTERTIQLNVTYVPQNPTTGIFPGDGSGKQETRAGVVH
# Description: as §1
# T4 sequence (P20138 18-364 R69G): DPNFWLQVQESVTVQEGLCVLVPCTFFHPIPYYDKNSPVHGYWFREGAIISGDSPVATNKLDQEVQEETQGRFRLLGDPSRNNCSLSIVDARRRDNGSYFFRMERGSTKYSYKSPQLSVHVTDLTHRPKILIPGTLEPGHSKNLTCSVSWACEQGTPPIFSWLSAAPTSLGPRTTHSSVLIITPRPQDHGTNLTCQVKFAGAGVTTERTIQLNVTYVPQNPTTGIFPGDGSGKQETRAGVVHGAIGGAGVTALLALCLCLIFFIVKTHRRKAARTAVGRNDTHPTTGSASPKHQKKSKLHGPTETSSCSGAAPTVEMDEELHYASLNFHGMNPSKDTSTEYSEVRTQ
# T5 sequence (P20138 18-259): as the sequence (P20138 18-259 R69G) above, with G52R counted along it
# T3 sequence (P20138 18-364): as the sequence (P20138 18-364 R69G) above, with G52R counted along it
Binder,binding result [1],binding result [2],geometric mean MFI fold change over Jurkat parental [3] [fold],geometric mean MFI fold change over Jurkat parental [4] [fold],binding result [5],binding result [6]
"Polypeptide No. 271 (scFv, V domains shown, scFv) VH: not shown VL: EIVMTQSPATLSVSPGERATLSCRASQSVSYNQLAWYQQKPGQAPRLLIYDISSRAAGIPARFSGSGSGTEFTLTISSLQSEDFAVYYCQQYGGLPATFGQGTRLEIKR",binds,binds,,,,
"Polypeptide No. 285 (scFv, V domains shown, scFv) VH: QVQLVQSGAEVKKPGSSVKVSCKASGYSFTNYYMHWVRQAPGQGLEWMGGIIPVFGTTTYSQTFQGRVTITADESTSTAYMELSSLRSEDTAVYYCARESQDGDFDYWGQGTLVTVSS VL: not shown",binds,binds,,,,
"Polypeptide No. 236 (scFv, V domains shown, scFv) VH: QVQLVQSGAEVKKPGSSVKVSCKASGGTFSSYAISWVRQAPGQGLEWMGGIIPILGIANYAQKFQGRVTITADESTSTAYMELSSLRSEDTAVYYCAHVDGYGMDVWGQGTTVTVSS VL: EIVMTQSPATLSVSPGERATLSCRASQSVSSNLAWYQQKPGQAPRLLIYDVSSRATGIPARFSGSGSGTEFTLTISSLQSEDFAVYYCQQLDAYPLTFGGGTKVEIKR",binds,binds,,,,
"Polypeptide No. 266 (scFv, V domains shown, scFv) VH: QVQLVQSGAEVKKPGSSVKVSCKASGYSLTELSIHWVRQAPGQGLEWMGGINPISGTANYAQKFQGRVTITADESTSTAYMELSSLRSEDTAVYYCARGTVRLNWFDPWGQGTLVTVSS VL: EIVMTQSPATLSVSPGERATLSCRASQSVGSQLGWYQQKPGQAPRLLIYGASTRATGIPARFSGSGSGTEFTLTISSLQSEDFAVYYCQQSFSTPLTFGGGTKVEIKR",binds,binds,,,,
"Polypeptide No. 32 (scFv, V domains shown, scFv) VH: EVQLLESGGGLVQPGGSLRLSCAASGFTFSSYGMHWVRQAPGKGLEWVSSISGSGDTTYYADSVKGRFTISRDNSKNTLYLQMNSLRAEDTAVYYCARDNPYGDYGGSFDYWGQGTLVTVSS VL: EIVMTQSPATLSVSPGERATLSCRASQSVSSSYLAWYQQKPGQAPRLLIYATSTRATGIPARFSGSGSGTEFTLTISSLQSEDFAVYYCQQYGSLPLTFGQGTKVEIKR",,,< 2,10 to 30,no binding,binds
"Polypeptide No. 251 (scFv, V domains shown, scFv) VH: QVQLVQSGAEVKKPGSSVKVSCKASGGTFSSDAINWVRQAPGQGLEWMGGIIPIVGTPTYAQKFQGRVTITADESTSTAYMELSSLRSEDTAVYYCAKGLAFGVFDGLDVWGQGTTVTVSS VL: EIVMTQSPATLSVSPGERATLSCRASQSVSSNYLAWYQQKPGQAPRLLIYDVSTRATGIPARFSGSGSGTEFTLTISSLQSEDFAVYYCQQYGSSTLTFGGGTKVEIKR",binds,binds,,,,
"Polypeptide No. 26 (scFv, V domains shown, scFv) VH: QVQLVQSGAEVKKPGASVKVSCKASGYTFTENEMHWVRQAPGQGLEWMGWMNPNSGNTGYAQKFQGRVTMTRDTSTSTVYMELSSLRSEDTAVYYCAREGGDWPYYYMDVWGKGTTVTVSS VL: DIQMTQSPSSLSASVGDRVTITCQASQDIRNYLNWYQQKPGKAPKLLIYAASSLQSGVPSRFSGSGSGTDFTLTISSLQPEDFATYYCQQTSSTPLTFGPGTKVDIKR",,,< 2,2 to 10,no binding,binds
"Polypeptide No. 264 (scFv, V domains shown, scFv) VH: QVQLVQSGAEVKKPGSSVKVSCKASGYTLTELSMHWVRQAPGQGLEWMGGIIPISSATSIPQKFQGRVTITADESTSTAYMELSSLRSEDTAVYYCARGALYSSSPVRVVAGTKGWFDPWGQGTLVTVSS VL: DIQMTQSPSSLSASVGDRVTITCRASQDISNYLAWYQQKPGKAPKLLIYAASSLQSGVPSRFSGSGSGTDFTLTISSLQPEDFATYYCQQYYSYPLTFGGGTKVEIKR",binds,binds,,,,
"Polypeptide No. 27 (scFv, V domains shown, scFv) VH: QVQLVQSGAEVKKPGASVKVSCKASGYTLTGYYMHWVRQAPGQGLEWMGWMNPSSGNTGYAQQFQGRVTMTRDTSTSTVYMELSSLRSEDTAVYYCARASSDRYYYDGVWYFDLWGRGTLVTVSS VL: DIQMTQSPSSLSASVGDRVTITCRASQDIRNNLGWYQQKPGKAPKLLIYGASSLQSGVPSRFSGSGSGTDFTLTISSLQPEDFATYYCQQTYSSPPTFGQGTKLEIKR",,,< 2,2 to 10,no binding,binds
"Polypeptide No. 272 (scFv, V domains shown, scFv) VH: QVQLVQSGAEVKKPGSSVKVSCKASGYIFTNYYIQWVRQAPGQGLEWMGGIIPIFGTVGYAQKFQGRVTITADESTSTAYMELSSLRSEDTAVYYCARGRIGGGNDYWGQGTLVTVSS VL: DIQMTQSPSSLSASVGDRVTITCQASQYISNYLNWYQQKPGKAPKLLIYDASSLESGVPSRFSGSGSGTDFTLTISSLQPEDFATYYCQQSYSTPYTFGQGTKLEIKR",binds,binds,,,,
"Polypeptide No. 275 (scFv, V domains shown, scFv) VH: QVQLVQSGAEVKKPGSSVKVSCKASGYTFTSYYMHWVRQAPGQGLEWMGWMNPYSGNTGYAQKFQGRVTITADESTSTAYMELSSLRSEDTAVYYCARVGSGWYSDYWGQGTLVTVSS VL: not shown",binds,binds,,,,
"Polypeptide No. 252 (scFv, V domains shown, scFv) VH: QVQLVQSGAEVKKPGSSVKVSCKASGYTLTDLSIHWVRQAPGQGLEWVGGIIPMSGTANYAQKFQGRVTITADESTSTAYMELSSLRSEDTAVYYCARSSSSWPKYFQHWGQGTLVTVSS VL: not shown",binds,binds,,,,
"Polypeptide No. 29 (scFv, V domains shown, scFv) VH: QVQLVQSGAEVKKPGASVKVSCKASGYTFTGYYLHWVRQAPGQGLEWMGVINVRRGSTRYAQNFQGRVTMTRDTSTSTVYMELSSLRSEDTAVYYCARVSGSYYQPWGQGTLVTVSS VL: DIQMTQSPSSLSASVGDRVTITCRASQSISRWLAWYQQKPGKAPKLLIYDASNLETGVPSRFSGSGSGTDFTLTISSLQPEDFATYYCQQGNSFPPIFGGGTKVEIKR",,,< 2,2 to 10,no binding,binds
"Polypeptide No. 33 (scFv, V domains shown, scFv) VH: QVQLVQSGAEVKKPGASVKVSCKASGYTFTSYYMHWVRQAPGQGLEWMGIIDPSGGSTNYAQKFQGRVTMTRDTSTSTVYMELSSLRSEDTAVYYCARDYYGSGSYYGLDYWGRGTLVTVSS VL: DIQMTQSPSSLSASVGDRVTITCRASQGISNNLNWYQQKPGKAPKLLIYDASNLETGVPSRFSGSGSGTDFTLTISSLQPEDFATYYCQQANSFPLTFGPGTKVDIKR",,,< 2,> 30,no binding,binds
"Polypeptide No. 274 (scFv, V domains shown, scFv) VH: QVQLVQSGAEVKKPGSSVKVSCKASGYTFTYRYLHWVRQAPGQGLEWMGRITPISGTTNYAQKFQGRVTITADESTSTAYMELSSLRSEDTAVYYCAKDSGQLAHYGMDVWGQGTTVTVSS VL: not shown",binds,binds,,,,
"Polypeptide No. 31 (scFv, V domains shown, scFv) VH: QVQLVQSGAEVKKPGSSVKVSCKASGGTFSTYAITWVRQAPGQGLEWMGGIIPIVGRANYAQKFQGRVTITADESTSTAYMELSSLRSEDTAVYYCARSGGHDLDYWGQGTLVTVSS VL: DIQMTQSPSSLSASVGDRVTITCRASQGIGNDLGWYQQKPGKAPKLLIYGASSVQSGVPSRFSGSGSGTDFTLTISSLQPEDFATYYCQQSYSTPITFGQGTRLEIKR",,,< 2,10 to 30,no binding,binds
"Polypeptide No. 277 (scFv, V domains shown, scFv) VH: QVQLVQSGAEVKKPGSSVKVSCKASGYTFTGYYMHWVRQAPGQGLEWMGWIDPNSGGTNYAQKFQGRVTITADESTSTAYMELSSLRSEDTAVYYCARDVDTAMVTDYWGRGTLVTVSS VL: EIVMTQSPATLSVSPGERATLSCRASQSVDNLVGWYQQKPGQAPRLLIYDISSRATGIPARFSGSGSGTEFTLTISSLQSEDFAVYYCQQYGRSPITFGQGTRLEIKR",binds,binds,,,,
"Polypeptide No. 255 (scFv, V domains shown, scFv) VH: QVQLVQSGAEVKKPGSSVKVSCKASGYTLTELSMHWVRQAPGQGLEWMGGIIPISGTVTYAQKFQGRVTITADESTSTAYMELSSLRSEDTAVYYCANKGQQLVRGYFQHWGQGTLVTVSS VL: DIQMTQSPSSLSASVGDRVTITCQASHDIRNSVNWYQQKPGKAPKLLIYATSSLQSGVPSRFSGSGSGTDFTLTISSLQPEDFATYYCQQSYNTPFTFGQGTKLEIKR",binds,binds,,,,
"Polypeptide No. 267 (scFv, V domains shown, scFv) VH: QVQLVQSGAEVKKPGSSVKVSCKASGYTLTSFGISWVRQAPGQGLEWVGMIIPLSGTTHYAQKFQGRVTITADESTSTAYMELSSLRSEDTAVYYCANLYGGNAYYYYGMDVWGQGTTVTVSS VL: DIQMTQSPSSLSASVGDRVTITCRASQDISNFVAWYQQKPGKAPKLLIYAASSLQSGVPSRFSGSGSGTDFTLTISSLQPEDFATYYCQQSFDTPYTFGQGTKLEIKR",binds,binds,,,,
